Source: paper PMC2868900

Biological target: thymidylate synthase (TS) (zebrafish) (UniProt A0ACM8Q3Q5)
Assay: competition EMSA
Conditions: 37 C, 10 min, 100 ng TS (200 ng in Fig. 5B legend), 1 ng 32P TS mRNA, non-denaturing 5% acrylamide gel (60:1), binding buffer, salt and pH not given (cited ref.)

Chain of thymidylate synthase (TS) (zebrafish) (A0ACM8Q3Q5 entry or part of it): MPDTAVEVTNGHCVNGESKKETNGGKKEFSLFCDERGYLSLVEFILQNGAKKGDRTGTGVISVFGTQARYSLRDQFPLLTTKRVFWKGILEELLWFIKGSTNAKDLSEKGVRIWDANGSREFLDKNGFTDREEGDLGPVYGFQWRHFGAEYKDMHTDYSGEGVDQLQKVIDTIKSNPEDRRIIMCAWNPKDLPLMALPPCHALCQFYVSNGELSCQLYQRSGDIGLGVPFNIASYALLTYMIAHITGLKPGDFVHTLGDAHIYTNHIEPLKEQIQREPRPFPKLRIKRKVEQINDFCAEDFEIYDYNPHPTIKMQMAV

Substance	IC50 [nM]	IC50 (vs 32P full-length TS mRNA, 100-fold excess also did not compete (Fig. 3)) [nM]
TS1-36	0.6	
TS1-72	0.65	
TS1-145	0.52	
TS1-290	0.48	
TS1-580	0.48	
TS37-74 (TS37-72 in Methods)	> 1000	
TS73-145	> 1000	
TS146-290	> 1000	
TS291-580	> 1000	
TS581-1163	> 1000	
full-length TS mRNA (TS1-1163)	0.5	
luciferase mRNA		> 1000
